Test results published in patent publication US20150118700.

T1: α-fructosyl hexapeptide (α-fructosyl-valyl-histidyl-leucyl-threonyl-propyl-glutamic acid)
T1 chain: VHLTPE


Target: T1, α-fructosyl hexapeptide …

Row | Protein | αF6P oxidation activity ratio, relative to CFP-T7-H6 designated to be 100 (relative (CFP-T7-H6 = 100)) | αF6P oxidation activity, relative to αFVH oxidation activity designated to be 100 (relative (αFVH = 100)) | αF6P oxidation activity ratio, relative to CFP-T7-H20 designated to be 100 (relative (CFP-T7-H20 = 100)) | αF6P oxidation activity ratio, relative to CFP-T7-H26 designated to be 100 (relative (CFP-T7-H26 = 100)) | αF6P oxidation activity ratio (reference, designated to be 100) (relative (CFP-T7-H26 = 100)) | αF6P oxidation activity ratio (reference row of the table, 100) (relative (CFP-T7-H28 = 100))
1 | CFP-T7-H11 (protein) MTSNRADTRVIVVGGGGTIGSSTALHLVRSGYAPANITVLDTFEIPSAQSAGHDLNKIMGIDLRNKVDLQMSLEARQMWKEDELFQPFFHNTGRMDCEHTPEGIEKLKKLYQALHDAGAGLEKTHAWLDNEDEILSKMPLLQRDQIQGWKAIWSQDGGWLAAAKAINAIGQFLKERGVKFGFGGAGSFKQPLFDDEGTTCIGVETADGTKYYADKVVLAAGAWSPTLVDLEDQCCSKAWVYAHIQLTPEEAAEYKGVPVVYNGEFGFFFEPDEFGVIKVCDEFPGFSRFKEHQPYGAPSPKRISVPRSHAKHPTDTYPDASEVSIKKAIATFLPRFQDKELFNRALCWCTDTADAALLMCEHPKWKNFILATGDSGHSFKILPNVGKYVVELIEGRLPEEMAYQWRWRPGGDALKSRRAAPPKDLADMPGWKHDPKL | 951 | 12.5 |  |  |  | 
2 | CFP-T7-H12 (protein) MTSNRADTRVIVVGGGGTIGSSTALHLVRSGYAPANITVLDTFEIPSAQSAGHDLNKIMGIDLRNKVDLQMSLEARQMWKEDELFQPFFHNTGRMDCEHTPEGIERLKKLYQALHDAGAGLEKTHAWLDNEDEILSKMPLLQRDQIQGWKAIWSQDGGWLAAAKAINAIGQFLKERGVKFGFGGAGSFKQPLFDDEGTTCIGVETADGTKYYADKVVLAAGAWSPTLVDLEDQCCSKAWVYAHIQLTPEEAAEYKGVPVVYNGEFGFFFEPDEFGVIKVCDEFPGFSRFKEHQPYGAPSPKRISVPRSHAKHPTDTYPDASEVSIKKAIATFLPRFQDKELFNRALCWCTDTADAALLMCEHPKWKNFILATGDSGHSFKILPNVGKYVVELIEGRLPEEMAYQWRWRPGGDALKSRRAAPPKDLADMPGWKHDPKL | 636 | 11.6 |  |  |  | 
3 | CFP-T7-H25 (protein) MTSNRADTRVIVVGGGGTIGSSTALHLVRSGYAPANITVLDTFEIPSAQSAGHDLNKIMGIDDRNKVDLQMSLEARQMWKEDELFQPFFHNTGRMDCEHTPEGIEKLKKLYQKLHDAGAGLEKTHAWLDNEDEILSKMPLLQRDQIQGWKAIWSQDGGWLAAAKAINAIGQFLKERGVKFGFGGAGSFKQPLFDDEGTTCIGVETADGTKYYADKVVLAAGAWSPTLVDLEDQCCSKAWVYAHIQLTPEEAAEYKGVPVVYNGEFGFFFEPDEFGVIKVCDEFPGFSRFKEHQPYGAPSPKRISVPRSHAKHPTDTYPDASEVSIKKAIATFLPRFQDKELFNRALCWCTDTADAALLMCEHPKWKNFILATGDSGHSFKILPNVGKYVVELIEGRLPEEMAYQWRWRPGGDALKSRRAAPPKDLADMPGWKHDPKL |  |  | 24 |  |  | 
4 | CFP-T7-H13 (protein) MTSNRADTRVIVVGGGGTIGSSTALHLVRSGYAPANITVLDTFEIPSAQSAGHDLNKIMGIDLRNKVDLQMSLEARQMWKEDELFQPFFHNTGRMDCEHTPEGIEDLKKLYQKLHDAGAGLEKTHAWLDNEDEILSKMPLLQRDQIQGWKAIWSQDGGWLAAAKAINAIGQFLKERGVKFGFGGAGSFKQPLFDDEGTTCIGVETADGTKYYADKVVLAAGAWSPTLVDLEDQCCSKAWVYAHIQLTPEEAAEYKGVPVVYNGEFGFFFEPDEFGVIKVCDEFPGFSRFKEHQPYGAPSPKRISVPRSHAKHPTDTYPDASEVSIKKAIATFLPRFQDKELFNRALCWCTDTADAALLMCEHPKWKNFILATGDSGHSFKILPNVGKYVVELIEGRLPEEMAYQWRWRPGGDALKSRRAAPPKDLADMPGWKHDPKL | 207 | 4.33 |  |  |  | 
5 | CFP-T7-H1 (protein) MTSNRADTRVIVVGGGGTIGSSTALHLVRSGYAPANITVLDTFEIPSAQSAGHDLNKIMGIALRNKVDLQMSLEARQMWKEDELFQPFFHNTGRMDCEHTPEGIEDLKKQYQALHDAGAGLEKTHAWLDNEDEILSKMPLLQRDQIQGWKAIWSQDGGWLAAAKAINAIGQFLKERGVKFGFGGAGSFKQPLFDDEGTTCIGVETADGTKYYADKVVLAAGAWSPTLVDLEDQCCSKAWVYAHIQLTPEEAAEYKGVPVVYNGEFGFFFEPDEFGVIKVCDEFPGFSRFKEHQPYGAPSPKRISVPRSHAKHPTDTYPDASEVSIKKAIATFLPRFQDKELFNRALCWCTDTADAALLMCEHPKWKNFILATGDSGHSFKILPNVGKYVVELIEGRLPEEMAYQWRWRPGGDALKSRRAAPPKDLADMPGWKHDPKL |  | 0.0316 |  |  |  | 
6 | CFP-T7-H29 (protein) MTSNRADTRVIVVGGGGTIGSSTALHLVRSGYAPANITVLDTFEIPSAQSAGHDLNKIMGIDHRNKVDLQMSLEARQMWKEDELFQPFFHNTGRMDCEHTPEGIEKLKKLYQKLHDAGAGLEKTHAWLDNEDEILSKMPLLQRDQIQGWKAIWSQDGGWLAAAKAINAIGQFLKERGVKFGFGGAGSFKQPLFDDEGTTCIGVETADGTKYYADKVVLAAGAWSPTLVDLEDQCCSKAWVYAHIQLTPEEAAEYKGVPVVYNGEFGFFFEPDEFGVIKVCDEFPGFSRFKEHQPYGAPSPKRISVPRSHAKHPTDTYPDASEVSIKKAIATFLPRFQDKELFNRALCWCTDTADAALLMCEHPKWKNFILATGDSGHSFKILPNVGKYVVELIEGRLPEEMAYQWRWRPGGDALKSRRKAPPKDLADMPGWKHDPKL |  | 111 |  | 102 |  | 
7 | CFP-T7-H27 (protein) MTSNRADTRVIVVGGGGTIGSSTALHLVRSGYAPANITVLDTFEIPSAQSAGHDLNKIMGIDKRNKVDLQMSLEARQMWKEDELFQPFFHNTGRMDCEHTPEGIEKLKKLYQKLHDAGAGLEKTHAWLDNEDEILSKMPLLQRDQIQGWKAIWSQDGGWLAAAKAINAIGQFLKERGVKFGFGGAGSFKQPLFDDEGTTCIGVETADGTKYYADKVVLAAGAWSPTLVDLEDQCCSKAWVYAHIQLTPEEAAEYKGVPVVYNGEFGFFFEPDEFGVIKVCDEFPGFSRFKEHQPYGAPSPKRISVPRSHAKHPTDTYPDASEVSIKKAIATFLPRFQDKELFNRALCWCTDTADAALLMCEHPKWKNFILATGDSGHSFKILPNVGKYVVELIEGRLPEEMAYQWRWRPGGDALKSRRAAPPKDLADMPGWKHDPKL |  |  | 7 |  |  | 
8 | CFP-T7-H26 (protein) MTSNRADTRVIVVGGGGTIGSSTALHLVRSGYAPANITVLDTFEIPSAQSAGHDLNKIMGIDHRNKVDLQMSLEARQMWKEDELFQPFFHNTGRMDCEHTPEGIEKLKKLYQKLHDAGAGLEKTHAWLDNEDEILSKMPLLQRDQIQGWKAIWSQDGGWLAAAKAINAIGQFLKERGVKFGFGGAGSFKQPLFDDEGTTCIGVETADGTKYYADKVVLAAGAWSPTLVDLEDQCCSKAWVYAHIQLTPEEAAEYKGVPVVYNGEFGFFFEPDEFGVIKVCDEFPGFSRFKEHQPYGAPSPKRISVPRSHAKHPTDTYPDASEVSIKKAIATFLPRFQDKELFNRALCWCTDTADAALLMCEHPKWKNFILATGDSGHSFKILPNVGKYVVELIEGRLPEEMAYQWRWRPGGDALKSRRAAPPKDLADMPGWKHDPKL |  | 84.3 | 142 |  | 100 | 
9 | CFP-T7-H28 (protein) MTSNRADTRVIVVGGGGTIGSSTALHLVRSGYAPANITVLDTFEIPSAQSAGHDLNKIMGIDHRNKVDLQMSLEARQMWKEDELFQPFFHNTGRMDCEHTPKGIEKLKKLYQKLHDAGAGLEKTHAWLDNEDEILSKMPLLQRDQIQGWKAIWSQDGGWLAAAKAINAIGQFLKERGVKFGFGGAGSFKQPLFDDEGTTCIGVETADGTKYYADKVVLAAGAWSPTLVDLEDQCCSKAWVYAHIQLTPEEAAEYKGVPVVYNGEFGFFFEPDEFGVIKVCDEFPGFSRFKEHQPYGAPSPKRISVPRSHAKHPTDTYPDASEVSIKKAIATFLPRFQDKELFNRALCWCTDTADAALLMCEHPKWKNFILATGDSGHSFKILPNVGKYVVELIEGRLPEEMAYQWRWRPGGDALKSRRAAPPKDLADMPGWKHDPKL |  | 134 |  | 117 |  | 100
10 | CFP-T7-H14 (protein) MTSNRADTRVIVVGGGGTIGSSTALHLVRSGYAPANITVLDTFEIPSAQSAGHDLNKIMGIDLRNKVDLQMSLEARQMWKEDELFQPFFHNTGRMDCEHTPEGIEDLKKLYQRLHDAGAGLEKTHAWLDNEDEILSKMPLLQRDQIQGWKAIWSQDGGWLAAAKAINAIGQFLKERGVKFGFGGAGSFKQPLFDDEGTTCIGVETADGTKYYADKVVLAAGAWSPTLVDLEDQCCSKAWVYAHIQLTPEEAAEYKGVPVVYNGEFGFFFEPDEFGVIKVCDEFPGFSRFKEHQPYGAPSPKRISVPRSHAKHPTDTYPDASEVSIKKAIATFLPRFQDKELFNRALCWCTDTADAALLMCEHPKWKNFILATGDSGHSFKILPNVGKYVVELIEGRLPEEMAYQWRWRPGGDALKSRRAAPPKDLADMPGWKHDPKL | 183 | 4.22 |  |  |  | 
11 | CFP-T7-H24 (protein) MTSNRADTRVIVVGGGGTIGSSTALHLVRSGYAPANITVLDTFEIPSAQSAGHDLNKIMGIDARNKVDLQMSLEARQMWKEDELFQPFFHNTGRMDCEHTPEGIEKLKKLYQKLHDAGAGLEKTHAWLDNEDEILSKMPLLQRDQIQGWKAIWSQDGGWLAAAKAINAIGQFLKERGVKFGFGGAGSFKQPLFDDEGTTCIGVETADGTKYYADKVVLAAGAWSPTLVDLEDQCCSKAWVYAHIQLTPEEAAEYKGVPVVYNGEFGFFFEPDEFGVIKVCDEFPGFSRFKEHQPYGAPSPKRISVPRSHAKHPTDTYPDASEVSIKKAIATFLPRFQDKELFNRALCWCTDTADAALLMCEHPKWKNFILATGDSGHSFKILPNVGKYVVELIEGRLPEEMAYQWRWRPGGDALKSRRAAPPKDLADMPGWKHDPKL |  | 86.7 | 123 |  |  | 
